Laboratory results reported in IntAct's records for PubMed 21293379.

B1: Histone-lysine N-methyltransferase NSD2 (Homo sapiens), O96028-1 (parent)
chain: MEFSIKQSPLSVQSVVKCIKMKQAPEILGSANGKTPSCEVNRECSVFLSKAQLSSSLQEGVMQKFNGHDALPFIPADKLKDLTSRVFNGEPGAHDAKLRFESQEMKGIGTPPNTTPIKNGSPEIKLKITKTYMNGKPLFESSICGDSAADVSQSEENGQKPENKARRNRKRSIKYDSLLEQGLVEAALVSKISSPSDKKIPAKKESCPNTGRDKDHLLKYNVGDLVWSKVSGYPWWPCMVSADPLLHSYTKLKGQKKSARQYHVQFFGDAPERAWIFEKSLVAFEGEGQFEKLCQESAKQAPTKAEKIKLLKPISGKLRAQWEMGIVQAEEAASMSVEERKAKFTFLYVGDQLHLNPQVAKEAGIAAESLGEMAESSGVSEEAAENPKSVREECIPMKRRRRAKLCSSAETLESHPDIGKSTPQKTAEADPRRGVGSPPGRKKTTVSMPRSRKGDAASQFLVFCQKHRDEVVAEHPDASGEEIEELLRSQWSLLSEKQRARYNTKFALVAPVQAEEDSGNVNGKKRNHTKRIQDPTEDAEAEDTPRKRLRTDKHSLRKRDTITDKTARTSSYKAMEAASSLKSQAATKNLSDACKPLKKRNRASTAASSALGFSKSSSPSASLTENEVSDSPGDEPSESPYESADETQTEVSVSSKKSERGVTAKKEYVCQLCEKPGSLLLCEGPCCGAFHLACLGLSRRPEGRFTCSECASGIHSCFVCKESKTDVKRCVVTQCGKFYHEACVKKYPLTVFESRGFRCPLHSCVSCHASNPSNPRPSKGKMMRCVRCPVAYHSGDACLAAGCSVIASNSIICTAHFTARKGKRHHAHVNVSWCFVCSKGGSLLCCESCPAAFHPDCLNIEMPDGSWFCNDCRAGKKLHFQDIIWVKLGNYRWWPAEVCHPKNVPPNIQKMKHEIGEFPVFFFGSKDYYWTHQARVFPYMEGDRGSRYQGVRGIGRVFKNALQEAEARFREIKLQREARETQESERKPPPYKHIKVNKPYGKVQIYTADISEIPKCNCKPTDENPCGFDSECLNRMLMFECHPQVCPAGEFCQNQCFTKRQYPETKIIKTDGKGWGLVAKRDIRKGEFVNEYVGELIDEEECMARIKHAHENDITHFYMLTIDKDRIIDAGPKGNYSRFMNHSCQPNCETLKWTVNGDTRVGLFAVCDIPAGTELTFNYNLDCLGNEKTVCRCGASNCSGFLGDRPKTSTTLSSEEKGKKTKKKTRRRRAKGEGKRQSEDECFRCGDGGQLVLCDRKFCTKAYHLSCLGLGKRPFGKWECPWHHCDVCGKPSTSFCHLCPNSFCKEHQDGTAFSCTPDGRSYCCEHDLGAASVRSTKTEKPPPEPGKPKGKRRRRRGWRRVTEGK

Variants of: B1
Settings: with mdc1_human MDC1, Q14676
mdc1_human MDC1, Q14676, sequence (Q14676 whole entry): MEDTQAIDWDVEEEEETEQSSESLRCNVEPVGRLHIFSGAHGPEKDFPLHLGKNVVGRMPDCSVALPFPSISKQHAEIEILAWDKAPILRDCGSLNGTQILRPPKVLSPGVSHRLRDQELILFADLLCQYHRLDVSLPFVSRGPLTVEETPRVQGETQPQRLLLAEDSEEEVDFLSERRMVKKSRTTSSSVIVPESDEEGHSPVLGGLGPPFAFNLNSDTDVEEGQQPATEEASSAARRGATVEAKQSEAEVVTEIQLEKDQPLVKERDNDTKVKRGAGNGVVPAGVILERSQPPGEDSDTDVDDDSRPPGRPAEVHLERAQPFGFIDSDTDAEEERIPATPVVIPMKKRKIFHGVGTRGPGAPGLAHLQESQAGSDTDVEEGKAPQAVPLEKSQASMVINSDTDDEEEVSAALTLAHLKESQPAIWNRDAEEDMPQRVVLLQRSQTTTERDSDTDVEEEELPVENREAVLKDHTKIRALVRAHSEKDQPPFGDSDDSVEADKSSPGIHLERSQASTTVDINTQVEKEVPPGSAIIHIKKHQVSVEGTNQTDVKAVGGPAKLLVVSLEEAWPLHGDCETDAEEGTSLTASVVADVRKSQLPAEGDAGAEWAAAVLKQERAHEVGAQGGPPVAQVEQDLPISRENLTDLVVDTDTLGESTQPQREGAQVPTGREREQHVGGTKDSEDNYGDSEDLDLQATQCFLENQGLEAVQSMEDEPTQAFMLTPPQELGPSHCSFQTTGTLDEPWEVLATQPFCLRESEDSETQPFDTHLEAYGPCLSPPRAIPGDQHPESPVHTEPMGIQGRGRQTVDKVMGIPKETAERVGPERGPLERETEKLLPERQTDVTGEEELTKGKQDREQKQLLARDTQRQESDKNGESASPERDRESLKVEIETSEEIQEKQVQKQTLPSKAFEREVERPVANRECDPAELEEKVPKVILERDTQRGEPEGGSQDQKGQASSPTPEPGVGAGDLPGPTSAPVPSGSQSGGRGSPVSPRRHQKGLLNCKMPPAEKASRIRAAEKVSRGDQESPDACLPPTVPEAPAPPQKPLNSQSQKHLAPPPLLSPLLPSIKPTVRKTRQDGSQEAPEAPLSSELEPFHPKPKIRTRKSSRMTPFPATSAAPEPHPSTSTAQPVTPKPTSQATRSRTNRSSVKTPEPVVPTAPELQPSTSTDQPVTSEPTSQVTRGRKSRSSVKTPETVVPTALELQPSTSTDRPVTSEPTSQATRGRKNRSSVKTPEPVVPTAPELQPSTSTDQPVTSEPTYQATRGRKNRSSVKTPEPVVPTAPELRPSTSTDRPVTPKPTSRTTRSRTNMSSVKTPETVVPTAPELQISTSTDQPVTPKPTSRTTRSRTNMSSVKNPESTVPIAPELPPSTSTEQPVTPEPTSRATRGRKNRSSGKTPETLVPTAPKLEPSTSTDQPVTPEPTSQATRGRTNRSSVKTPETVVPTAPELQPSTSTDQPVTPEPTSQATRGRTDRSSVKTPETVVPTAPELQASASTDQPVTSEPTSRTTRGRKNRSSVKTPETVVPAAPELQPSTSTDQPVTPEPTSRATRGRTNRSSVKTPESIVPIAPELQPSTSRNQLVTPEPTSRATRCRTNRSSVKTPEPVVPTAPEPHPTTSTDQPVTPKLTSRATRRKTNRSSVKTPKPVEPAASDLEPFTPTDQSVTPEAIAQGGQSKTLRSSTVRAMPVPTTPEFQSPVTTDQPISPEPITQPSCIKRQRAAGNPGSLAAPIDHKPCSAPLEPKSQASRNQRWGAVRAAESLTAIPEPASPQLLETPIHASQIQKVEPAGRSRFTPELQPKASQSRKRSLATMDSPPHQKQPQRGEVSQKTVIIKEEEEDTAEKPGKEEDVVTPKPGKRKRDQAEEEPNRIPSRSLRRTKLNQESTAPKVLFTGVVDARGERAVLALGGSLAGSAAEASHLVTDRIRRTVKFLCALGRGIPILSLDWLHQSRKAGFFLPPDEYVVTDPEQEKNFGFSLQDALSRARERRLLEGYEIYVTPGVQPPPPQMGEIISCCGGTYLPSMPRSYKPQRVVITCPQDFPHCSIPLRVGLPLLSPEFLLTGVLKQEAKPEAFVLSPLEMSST

| effect of a mutation on the interaction | Variant |
| --- | --- |
| disrupting interaction | S102A |
